Experimental findings from patent publication US20220251204A1 (AstraZeneca / MedImmune, published 2022) are described below.

The chains are these.
B1: OX40(SLR)/PD-L1 BiS5 (bispecific antibody, human IgG1, kappa)
heavy: QVQLQESGPGLVKPSQTLSLTCAVYGGSFSSGYWNWIRKHPGKGLEYIGYISYNAITYHNPSLKSRITINRDTSKNQYSLQLNSVTPEDTAVYYCARYKYDYEGGHAMDYWGQGTLVTVSSASTKGPSVFPLAPSSKSTSGGTAALGCLVKDYFPEPVTVSWNSGALTSGVHTFPAVLQSSGLYSLSSVVTVPSSSLGTQTYICNVNHKPSNTKVDKRVEPKSCDKTHTCPPCPAPELLGGPSVFLFPPKPKDTLMISRTPEVTCVVVDVSHEDPEVKFNWYVDGVEVHNAKTKPREEQYNSTYRVVSVLTVLHQDWLNGKEYKCKVSNKALPAPIEKTISKAKGQPREPQVYTLPPSREEMTKNQVSLTCLVKGFYPSDIAVEWESNGGGGSGGGGSEVQLVESGGGLVQPGGSLRLSCAASGFTFSRYWMSWVRQAPGKCLEWVANIKQDGSEKYYVDSVKGRFTISRDNAKNSLYLQMNSLRAEDTAVYYCAREGGWFGELAFDYWGQGTLVTVSSGGGGSGGGGSGGGGSGGGGSEIVLTQSPGTLSLSPGERATLSCRASQRVSSSYLAWYQQKPGQAPRLLIYDASSRATGIPDRFSGSGSGTDFTLTISRLEPEDFAVYYCQQYGSLPWTFGCGTKVEIKGGGGSGGGGSGQPENNYKTTPPVLDSDGSFFLYSKLTVDKSRWQQGNVFSCSVMHEALHAHYTQKSLSLSPGK
light: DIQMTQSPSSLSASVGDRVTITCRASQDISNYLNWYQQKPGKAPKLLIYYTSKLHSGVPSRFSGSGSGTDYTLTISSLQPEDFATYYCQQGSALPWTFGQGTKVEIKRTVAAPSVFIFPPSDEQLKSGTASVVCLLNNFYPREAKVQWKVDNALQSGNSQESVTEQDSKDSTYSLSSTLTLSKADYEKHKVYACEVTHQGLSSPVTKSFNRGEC
notes: also called BiS5 OX40Ab/PD-L1; PD-L1/OX40 BiS5
B2: Anti-CTLA-4 IgG (antibody, V domains shown)
VH: QVQLVESGGGVVQPGRSLRLSCAASGFTFSSYGMHWVRQAPGKGLEWVAVIWYDGSNKYYADSVKGRFTISRDNSKNTLYLQMNSLRAEDTAVYYCARDPRGATLYYYYYGMDVWGQGTTVTVSS
VL: DIQMTQSPSSLSASVGDRVTITCRASQSINSYLDWYQQKPGKAPKLLIYAASSLQSGVPSRFSGSGSGTDFTLTISSLQPEDFATYYCQQYYSTPFTFGPGTKVEIK
notes: also called tremelimumab; MEDI1123
B3: hOX40-Fc (human recombinant protein, R&D Systems) (Fc fusion)
chain: LHCVGDTYPSNDRCCHECRPGNGMVSRCSRSQNTVCRPCGPGFYNDVVSSKPCKPCTWCNLRSGSERKQLCTATQDTVCRCRAGTQPLDSYKPGVDCAPCPPGHFSPGDNQACKPWTNCTLAGKHTLQPASNSSDAICEDRDPPATQPQETQGPPARPITVQPTEAWPRTSQGPSTRPVEVPGGRAVA
notes: also called human OX40-Fc; not shown: Fc part of the bought fusion
B4: O13-1 IgG1-TM (antibody, V domains shown)
VH: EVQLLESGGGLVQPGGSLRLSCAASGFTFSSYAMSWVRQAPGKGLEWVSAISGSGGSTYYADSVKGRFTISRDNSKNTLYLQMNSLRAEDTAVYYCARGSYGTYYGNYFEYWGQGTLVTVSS
VL: SYVLTQPPSVSVAPGKTARITCGGDNIGGKSVHWYQQKPGQAPVLVIYYDSDRPSGIPERFSGSNSGNTATLTISRVEAGDEADYYCQVLDRRSDHFLFGGGTKLTVLG
notes: also called anti-TIM3 LOO131

For assay [1], the target named is T1, CD32a expressed on HEK cells (UniProt P12318 34-317).
T1 construct: whole, on cells; also called HEK CD32a cells
T1 sequence (looked up): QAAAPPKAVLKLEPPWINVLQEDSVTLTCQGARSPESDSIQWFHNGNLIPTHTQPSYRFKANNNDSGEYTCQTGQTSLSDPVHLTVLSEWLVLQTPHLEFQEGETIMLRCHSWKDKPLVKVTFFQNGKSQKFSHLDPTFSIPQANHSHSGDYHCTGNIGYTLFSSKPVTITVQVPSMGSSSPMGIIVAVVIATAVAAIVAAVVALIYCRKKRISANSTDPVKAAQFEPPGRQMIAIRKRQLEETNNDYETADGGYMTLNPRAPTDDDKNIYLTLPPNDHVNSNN
The assay is described as follows: flow cytometry (HyperCyt, FL4-H median) on HEK CD32a cells, concentration not given. Background: Flow cytometry measures light scatter and fluorescence of single cells or particles in a stream.

In assay [2] the target is B3. The assay is described as follows: Octet: antibody held on PDL1-HiS-Fc loaded anti-HiS sensor, then 5ug/mL rhOx40-Fc association.
The target in assay [3] is T2, human OX40 expressed on cells (human, UniProt P43489 29-277).
T2 construct: also called CHO cells expressing human OX40; Jurkat OX40 reporter cells
T2 sequence: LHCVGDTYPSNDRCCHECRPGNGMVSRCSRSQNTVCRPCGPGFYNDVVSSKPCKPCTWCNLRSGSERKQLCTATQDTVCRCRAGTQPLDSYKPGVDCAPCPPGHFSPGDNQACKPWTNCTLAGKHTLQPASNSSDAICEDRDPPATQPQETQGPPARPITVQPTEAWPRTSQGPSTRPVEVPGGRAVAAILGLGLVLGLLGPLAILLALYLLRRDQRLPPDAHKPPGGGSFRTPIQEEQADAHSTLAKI
The assay is described as follows: flow cytometry (HyperCyt, FL4-H median) on Jurkat OX40 cells, one condition, concentration not given.

The target in assay [4] is T3, human CTLA-4 antigen (soluble) (human, UniProt P16410 36-161).
T3 construct: also called hu CTLA4; soluble CTLA-4 antigen
T3 sequence: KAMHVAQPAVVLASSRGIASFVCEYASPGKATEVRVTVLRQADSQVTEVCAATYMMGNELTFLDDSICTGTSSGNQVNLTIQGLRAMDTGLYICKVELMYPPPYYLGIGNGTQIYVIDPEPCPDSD
The assay is described as follows: SPR, BIAcore T200; antibody captured on mouse anti-huIgG-Fab, antigen injected. On the technique in general: In SPR one partner is held on a chip, and binding of the other changes the refractive index at the surface.

In the next assay the target is T4, cynomolgus CTLA-4 (cynomolgus, UniProt G7PL88 36-161).
T4 construct: also called cyno CTLA4
T4 sequence: T3 sequence with S14N, I18T, L106M
The description is as above.

Assay [5] addresses T5, human PD-1 expressed on cells (human, UniProt Q15116 25-288).
T5 construct: also called CHO cells overexpressing human PD1
The assay can be described thus: flow cytometry receptor occupancy, CHO cells expressing PD-1:CTLA-4 (10:1); free PD-1 detected with labeled anti-PD-1 mAb.

For assay [6], the target named is T6, human CTLA-4 expressed on cells (human, UniProt P16410 36-223).
T6 construct: also called CTLA-4 reporter cells
T6 sequence: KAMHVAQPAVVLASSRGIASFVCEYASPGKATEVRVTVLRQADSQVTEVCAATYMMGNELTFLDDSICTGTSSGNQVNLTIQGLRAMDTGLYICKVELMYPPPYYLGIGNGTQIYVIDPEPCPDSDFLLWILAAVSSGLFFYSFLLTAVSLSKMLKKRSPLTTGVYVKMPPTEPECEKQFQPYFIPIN
The assay can be described thus: flow cytometry receptor occupancy, CHO cells expressing PD-1:CTLA-4 (10:1); free CTLA-4 detected with labeled anti-CTLA-4 mAb.

Assay [7] has as its target T6, human CTLA-4 expressed on cells. The assay can be described thus: flow cytometry receptor occupancy, CHO cells expressing PD-1:CTLA-4 (40:1); free CTLA-4 detected with labeled anti-CTLA-4 mAb.
Assay [8] shares this target. The assay can be described thus: flow cytometry receptor occupancy, CHO cells expressing PD-1:CTLA-4 (40:1), combination of the anti-PD-1 and anti-CTLA-4 mAbs; free CTLA-4 detected with labeled anti-CTLA-4 mAb; label stands beside the dark-diamond curve, which crosses 50 % at about 2.5 nM.
The target of assay [9] is T7, His-tagged PD-L1-Fc (human recombinant protein, R&D Systems) (human, UniProt Q9NZQ7 19-238).
T7 construct: also called PD-L1-His
T7 sequence (Q9NZQ7 19-238 limits assumed): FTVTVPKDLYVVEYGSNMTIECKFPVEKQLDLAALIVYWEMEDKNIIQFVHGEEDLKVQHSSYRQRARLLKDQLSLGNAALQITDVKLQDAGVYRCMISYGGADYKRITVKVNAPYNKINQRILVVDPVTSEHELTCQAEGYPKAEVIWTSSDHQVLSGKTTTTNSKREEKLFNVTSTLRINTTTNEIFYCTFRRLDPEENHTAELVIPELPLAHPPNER
The assay is described as follows: Octet: PDL1-HiS-Fc loaded anti-HiS sensor, 5ug/mL rhOx40-Fc association.

Assay [10] deals with T8, human TIM3 expressed on CHO cells (human, UniProt Q8TDQ0 22-301).
T8 construct: also called CHO cells overexpressing human TIM3
T8 sequence: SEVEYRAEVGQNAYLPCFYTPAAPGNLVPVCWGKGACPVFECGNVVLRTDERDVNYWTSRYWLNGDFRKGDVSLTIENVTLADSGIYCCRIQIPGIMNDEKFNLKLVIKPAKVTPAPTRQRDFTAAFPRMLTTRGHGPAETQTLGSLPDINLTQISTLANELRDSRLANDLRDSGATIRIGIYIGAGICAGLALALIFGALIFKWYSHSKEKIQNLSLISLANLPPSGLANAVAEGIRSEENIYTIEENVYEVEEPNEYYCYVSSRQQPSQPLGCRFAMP
The assay can be described thus: flow cytometry, Human TIM3 CHO cells, x axis hIgG1TM (nM).

Assay [11] addresses T5, human PD-1 expressed on cells. The assay is described as follows: flow cytometry, HumanPD1 CHO cells, x axis hIgG1TM mAb (nM).
The next assay deals with T9, human TIM3 (soluble) (human, UniProt Q8TDQ0 22-202).
T9 construct: also called Biotinylated human TIM3
T9 sequence: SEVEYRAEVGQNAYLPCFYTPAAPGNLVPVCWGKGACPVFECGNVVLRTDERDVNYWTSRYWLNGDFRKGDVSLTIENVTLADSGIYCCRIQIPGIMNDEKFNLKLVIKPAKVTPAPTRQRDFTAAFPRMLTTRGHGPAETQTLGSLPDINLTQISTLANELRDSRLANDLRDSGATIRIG
The assay is described as follows: SPR, BIAcore T200; antibody captured on mouse anti-huIgG-Fab, antigen injected.

Another assay deals with T10, cynomolgus TIM3 (cynomolgus, UniProt A0A2K5U3G7 22-195).
T10 construct: also called Cyno TIM3
T10 sequence: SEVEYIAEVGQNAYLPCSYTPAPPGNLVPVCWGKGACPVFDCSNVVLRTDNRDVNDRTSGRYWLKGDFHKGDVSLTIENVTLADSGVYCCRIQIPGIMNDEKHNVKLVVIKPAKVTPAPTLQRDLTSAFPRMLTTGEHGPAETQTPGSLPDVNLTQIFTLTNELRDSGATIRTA
The assay is described as above.

Where a chain is given by its changes, count along the chain named.

T5 sequence (Q15116 25-288 limits assumed): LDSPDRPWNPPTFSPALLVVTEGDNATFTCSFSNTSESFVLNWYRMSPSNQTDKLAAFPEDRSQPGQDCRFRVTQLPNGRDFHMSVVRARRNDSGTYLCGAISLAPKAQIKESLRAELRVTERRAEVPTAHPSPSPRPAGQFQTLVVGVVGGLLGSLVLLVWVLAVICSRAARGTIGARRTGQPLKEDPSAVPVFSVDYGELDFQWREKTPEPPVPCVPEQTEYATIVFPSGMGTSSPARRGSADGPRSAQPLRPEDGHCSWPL

As for B1, the binding result in [1], in assay [2] and in assay [3] was “binds” each time.
For the molecule B2, the equilibrium dissociation constant (Kd) worked out at 0.48 nM in assay [4] and 0.59 nM with cynomolgus CTLA-4. The off-rate constant (koff) worked out at 0.000304 s⁻¹ in [4] and 0.000674 s⁻¹ with cynomolgus CTLA-4. The kon in assay [4] worked out at 633000 M⁻¹ s⁻¹; with cynomolgus CTLA-4, 1.15e+06 M⁻¹ s⁻¹. The binding result in assay [5] is given as “no binding (tested: about 200 nM)”. Moreover, the IC50 in assay [6] came to 5 nM; in assay [7], 4.4 nM; in assay [8] it was 2.4 nM.
On to B3, for which, in assay [9], the binding result was “no binding (tested: 5ug/mL)”.
For B4, the “EC50 (read off the curve)” value in assay [10] is approximately 0.03 nM. Moreover, in assay [11], the binding result is “no binding (tested: about 100 nM)”. In the assay with human TIM3 (soluble), this molecule came in with a Kd of 4.01 nM, a koff of 0.00752 s⁻¹ and a kon of 1.88e+06 M⁻¹ s⁻¹. In the assay with cynomolgus TIM3, this molecule returned a dissociation constant Kd of 25.7 nM, a koff of 0.0718 s⁻¹ and a kon of 2.79e+06 M⁻¹ s⁻¹.

Broadly, the Kd is a measure of binding affinity in units of concentration. One may read the koff as the first-order rate constant of dissociation. Higher therefore signals a short-lived complex. What is called kon is the second-order rate constant of association. A higher kon goes with fast association. By IC50 is commonly meant the midpoint of a concentration-inhibition curve. As usually defined, the EC50 (read off the curve) is the midpoint of the concentration-response curve.
